According to patent US12312417B2, “Binding proteins 1” (Nucleus Therapeutics Pty. Ltd., priority 2017, dated 2025):

Experiments:
Type in all cases: cell-based
[1] = system: DLD1 colon cancer cells; experiment: Alkaline phosphatase-based survey of nuclear penetration; conditions: cells treated for one hour; right shift of histogram peak
Method: DLD1 colon cancer cells were treated with control media or each of the indicated variants for one hour. Cells were then washed, fixed, blocked with 1% BSA-TBST, and then probed with protein L for one hour. Cells were then washed and incubated with an anti-protein L primary antibody for one hour. After another round of washing cells were incubated with an alkaline phosphatase-conjugated secondary antibody for one hour. Finally, cells were washed and signal was developed by addition of NBT/BCIP. Dark stain indicates location of the variants.
Raw integrated density values reflecting nuclear alkaline phosphatase staining in the DLD1 cells from the experiment in FIG. 3 were obtained by analysis using ImageJ Boxplots of distributions of values are presented for each variant in FIG. 4.
Histogram plots of cell counts versus nuclear staining intensity (represented as reciprocal intensity in arbitrary units) are shown in FIG. 5.

[2] = system: PTEN-deficient U251 human glioma cells; experiment: Phospho-53BP1 foci accumulation (DNA damage); conditions: PTEN-deficient U251; twenty-four hours; vs control media
Method: A matched pair of PTEN-proficient and deficient U251 human glioma cells were treated with control media or media containing Variant 10, 11, 13, 15, or 16 for twenty-four hours. Cells were then washed, fixed, blocked, and then probed with an anti-phospho-53BP1 antibody overnight. Cells were then washed and incubated with an AlexaFluor555-conjugated secondary antibody. Finally, cells were washed, counterstained with DAPI, and visualized under a fluorescence microscope. Images were saved and evaluated by CellProfiler to determine mean number of phospho-53BP1 foci per cell.
A matched pair of BRCA2-proficient and deficient DLD1 colon cancer cells and PTEN-proficient and deficient U251 human glioma cells were treated with control media or media containing 10 μM di-scFv variant 13 (SEQ ID NO: 41), 5 nM olaparib, or combination treatment.

[3] = system: PTEN-deficient U87 human glioma cells; experiment: Cell viability by Trypan blue exclusion assay; conditions: 7 days after treatment; relative to control treated cells
Method: Cell viability of PTEN-deficient U87 human glioma cells was also assessed following treatment with control media or media containing Variants 10, 13, 15, or 16. Cell viability was determined 7 days after treatment using Trypan blue exclusion assay and by direct visualization of cell morphology by light microscopy.

[4] = system: BRCA2-proficient DLD1 colon cancer cells; experiment: Cell viability by Trypan blue exclusion assay; conditions: 7 days later
Method: (§1) Next, a matched pair of BRCA2-proficient and deficient DLD1 colon cancer cells was treated with control media or media containing Variants 10, 13, 15, or 16. Cell viability was determined 7 days later by Trypan blue exclusion assay and by direct visualization of cell morphology by light microscopy. […] Representative light microscope images shown the changes in morphology in the BRCA2-deficient cancer cells treated with the variants are shown in FIG. 10, Panel A. Quantitative analysis of the cell survival by Trypan blue exclusion assay is shown in FIG. 10, Panel B.

[5] = system: BRCA2-deficient DLD1 colon cancer cells; experiment: Cell viability by Trypan blue exclusion assay; conditions: 7 days later
Method: as §1

Molecule | nuclear penetration relative to the yeast prototype (histogram of cell counts versus nuclear staining intensity) [1] | mean number of phospho-53BP1 foci per cell [2] | cell viability [3] | cell viability / toxicity [4] | cell viability / toxicity [5]
Variant 12: cell penetrating anti-DNA humanized di-scFv, SEQ ID NO: 40 (protein, Variant 12) scFv: DIQMTQSPSSLSASVGDRVTITCRASKSVSTSSYSYMHWYQQKPGKAPKLLIKYASYLESGVPSRFSGSGSGTDFTLTISSLQPEDFATYYCQHSREFPWTFGQGTKVEIKRADAAPGGGGSGGGGSGGGGSEVQLVESGGGDVKPGGSLRLSCAASGFTFSNYGMHWVRQAPEKGLEWVSYISSSSSTIYYADSVKGRFTISRDNSKNTLYLQMNSLRAEDTAVYYCARRGLLLDYWGQGTTVTVSSASTKGPSVFPLAPLESSGSDIQMTQSPSSLSASVGDRVTITCRASKSVSTSSYSYMHWYQQKPGKAPKLLIKYASYLESGVPSRFSGSGSGTDFTLTISSLQPEDFATYYCQHSREFPWTFGQGTKVEIKRADAAPGGGGSGGGGSGGGGSEVQLVESGGGDVKPGGSLRLSCAASGFTFSNYGMHWVRQAPEKGLEWVSYISSSSSTIYYADSVKGRFTISRDNSKNTLYLQMNSLRAEDTAVYYCARRGLLLDYWGQGTTVTVSS | Most of the variants, other than variants 12 and 14, showed improved nuclear penetration |  |  |  | 
Variant 10: cell penetrating anti-DNA humanized di-scFv, SEQ ID NO: 38 (protein, Variant 10) scFv: DIQMTQSPSSLSASVGDRVTITCRASKSVSTSSYSYMHWYQQKPGKAPKLLIKYASYLESGVPSRFSGSGSGTDFTLTISSLQPEDFATYYCQHSREFPWTFGQGTKVEIKRADAAPGGGGSGGGGSGGGGSEVQLVESGGGLVQPGGSLRLSCAASGFTFSNYGMHWVRQAPGKGLEWVSYISSSSSTIYYADSVKGRFTISRDNAKNSLYLQMNSLRAEDTAVYYCARRGLLLDYWGQGTTVTVSSASTKGPSVFPLAPLESSGSDIQMTQSPSSLSASVGDRVTITCRASKSVSTSSYSYMHWYQQKPGKAPKLLIKYASYLESGVPSRFSGSGSGTDFTLTISSLQPEDFATYYCQHSREFPWTFGQGTKVEIKRADAAPGGGGSGGGGSGGGGSEVQLVESGGGLVQPGGSLRLSCAASGFTFSNYGMHWVRQAPGKGLEWVSYISSSSSTIYYADSVKGRFTISRDNAKNSLYLQMNSLRAEDTAVYYCARRGLLLDYWGQGTTVTVSS |  | increased the number of foci | reductions in cell viability | not toxic | killed by the variants
Variant 11: cell penetrating anti-DNA humanized di-scFv, SEQ ID NO: 39 (protein, Variant 11) scFv: DIQMTQSPSSLSASVGDRVTITCRASKSVSTSSYSYMHWYQQKPGKAPKLLIKYASYLESGVPSRFSGSGSGTDFTLTISSLQPEDFATYYCQHSREFPWTFGQGTKVEIKRADAAPGGGGSGGGGSGGGGSEVQLVESGGGVVQPGGSLRLSCAASGFTFSNYGMHWVRQAPEKGLEWVSYISSSSSTIYYADSVKGRFTISRDNSKNTLYLQMNSLRAEDTAVYYCARRGLLLDYWGQGTTVTVSSASTKGPSVFPLAPLESSGSDIQMTQSPSSLSASVGDRVTITCRASKSVSTSSYSYMHWYQQKPGKAPKLLIKYASYLESGVPSRFSGSGSGTDFTLTISSLQPEDFATYYCQHSREFPWTFGQGTKVEIKRADAAPGGGGSGGGGSGGGGSEVQLVESGGGVVQPGGSLRLSCAASGFTFSNYGMHWVRQAPEKGLEWVSYISSSSSTIYYADSVKGRFTISRDNSKNTLYLQMNSLRAEDTAVYYCARRGLLLDYWGQGTTVTVSS |  | increased the number of foci |  |  | 
Variant 14: cell penetrating anti-DNA humanized di-scFv, SEQ ID NO: 42 (protein, Variant 14) scFv: DIQMTQSPSSLSASLGDRATITCRASKTVSTSSYSYMHWYQQKPGQPPKLLIKYASYLESGVPSRFSGSGSGTDFTLTISSLQPEDAATYYCQHSREFPWTFGGGTKVEIKRADAAPGGGGSGGGGSGGGGSEVQLVESGGGVVQPGGSLRLSCAASGFTFSNYGMHWVRQAPEKGLEWVSYISSGSSTIYYADSVKGRFTISRDNSKNTLYLQMNSLRAEDTAVYYCARRGLLLDYWGQGTTVTVSSASTKGPSVFPLAPLESSGSDIQMTQSPSSLSASLGDRATITCRASKTVSTSSYSYMHWYQQKPGQPPKLLIKYASYLESGVPSRFSGSGSGTDFTLTISSLQPEDAATYYCQHSREFPWTFGGGTKVEIKRADAAPGGGGSGGGGSGGGGSEVQLVESGGGVVQPGGSLRLSCAASGFTFSNYGMHWVRQAPEKGLEWVSYISSGSSTIYYADSVKGRFTISRDNSKNTLYLQMNSLRAEDTAVYYCARRGLLLDYWGQGTTVTVSS | Most of the variants, other than variants 12 and 14, showed improved nuclear penetration |  |  |  | 
Variant 15: cell penetrating anti-DNA humanized di-scFv, SEQ ID NO: 43 (protein, Variant 15) scFv: DIQMTQSPSSLSASLGDRATITCRASKTVSTSSYSYMHWYQQKPGQPPKLLIKYASYLESGVPSRFSGSGSGTDFTLTISSLQPEDAATYYCQHSREFPWTFGGGTKVEIKRADAAPGGGGSGGGGSGGGGSEVQLVESGGGDVKPGGSLRLSCAASGFTFSNYGMHWVRQAPEKGLEWVSYISSGSSTIYYADSVKGRFTISRDNSKNTLYLQMNSLRAEDTAVYYCARRGLLLDYWGQGTTVTVSSASTKGPSVFPLAPLESSGSDIQMTQSPSSLSASLGDRATITCRASKTVSTSSYSYMHWYQQKPGQPPKLLIKYASYLESGVPSRFSGSGSGTDFTLTISSLQPEDAATYYCQHSREFPWTFGGGTKVEIKRADAAPGGGGSGGGGSGGGGSEVQLVESGGGDVKPGGSLRLSCAASGFTFSNYGMHWVRQAPEKGLEWVSYISSGSSTIYYADSVKGRFTISRDNSKNTLYLQMNSLRAEDTAVYYCARRGLLLDYWGQGTTVTVSS | notable right shift and narrowing of distributions | increased the number of foci | reductions in cell viability | not toxic | killed by the variants
Variant 16: cell penetrating anti-DNA humanized di-scFv, SEQ ID NO: 44 (protein, Variant 16) scFv: DIQMTQSPSSLSASVGDRVTITCRASKTVSTSSYSYMHWYQQKPGKAPKLLIKYASYLESGVPSRFSGSGSGTDFTLTISSLQPEDFATYYCQHSREFPWTFGQGTKVEIKRADAAPGGGGSGGGGSGGGGSEVQLVESGGGLVQPGGSLRLSCAASGFTFSNYGMHWVRQAPGKGLEWVSYISSGSSTIYYADSVKGRFTISRDNAKNSLYLQMNSLRAEDTAVYYCARRGLLLDYWGQGTTVTVSSASTKGPSVFPLAPLESSGSDIQMTQSPSSLSASVGDRVTITCRASKTVSTSSYSYMHWYQQKPGKAPKLLIKYASYLESGVPSRFSGSGSGTDFTLTISSLQPEDFATYYCQHSREFPWTFGQGTKVEIKRADAAPGGGGSGGGGSGGGGSEVQLVESGGGLVQPGGSLRLSCAASGFTFSNYGMHWVRQAPGKGLEWVSYISSGSSTIYYADSVKGRFTISRDNAKNSLYLQMNSLRAEDTAVYYCARRGLLLDYWGQGTTVTVSS |  | increased the number of foci | reductions in cell viability | not toxic | killed by the variants
